Kd data for 13 molecules are collected here from patent publication US20200317768A1 (published 2020).

Changes are numbered by the printed parent chain.

Common to all, as to test: SPR (Biacore), antibody captured, FcgR analyte, 25 C
Background: In SPR one partner is held on a chip, and binding of the other changes the refractive index at the surface.

The target in test [1] is T1, cynomolgus monkey FcγRIIb extracellular domain, C-terminal His-tag (cynomolgus monkey).
T1 construct: also called cyno FcγRIIb; cynoFcγRIIb; not shown: His-tag added to C-terminus
T1 chain: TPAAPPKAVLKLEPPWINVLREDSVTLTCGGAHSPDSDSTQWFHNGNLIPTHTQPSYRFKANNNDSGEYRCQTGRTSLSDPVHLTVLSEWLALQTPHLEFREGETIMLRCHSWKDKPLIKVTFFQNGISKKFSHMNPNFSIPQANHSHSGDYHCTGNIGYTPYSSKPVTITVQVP

Test [2] has as its target T2, human FcγRIIb extracellular domain, C-terminal His-tag (human, UniProt P31994 43-217).
T2 construct: also called FcgRIIb (human); not shown: His-tag added to C-terminus
T2 sequence: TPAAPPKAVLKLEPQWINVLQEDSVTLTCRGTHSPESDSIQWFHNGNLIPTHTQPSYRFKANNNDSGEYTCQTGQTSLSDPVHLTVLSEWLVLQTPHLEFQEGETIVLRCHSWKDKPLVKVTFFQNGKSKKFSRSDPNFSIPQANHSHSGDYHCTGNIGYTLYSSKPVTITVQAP

Test [3] deals with T3, cynomolgus monkey FcγRIIa2 extracellular domain, C-terminal His-tag (cynomolgus monkey).
T3 construct: also called cyno FcγRIIa2; cynoFcgRIIa2; not shown: His-tag added to C-terminus
T3 chain: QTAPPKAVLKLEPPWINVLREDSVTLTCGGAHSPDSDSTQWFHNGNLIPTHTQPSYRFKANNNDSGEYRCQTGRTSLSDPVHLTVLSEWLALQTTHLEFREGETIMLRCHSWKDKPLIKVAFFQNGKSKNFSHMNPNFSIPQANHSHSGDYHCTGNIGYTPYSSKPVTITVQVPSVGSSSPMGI

Test [4] addresses T4, human FcγRIIaR extracellular domain, C-terminal His-tag (human, UniProt P12318 34-217).
T4 construct: also called human FcγRIIa (type R); FcgRIIaR; not shown: His-tag added to C-terminus
T4 chain: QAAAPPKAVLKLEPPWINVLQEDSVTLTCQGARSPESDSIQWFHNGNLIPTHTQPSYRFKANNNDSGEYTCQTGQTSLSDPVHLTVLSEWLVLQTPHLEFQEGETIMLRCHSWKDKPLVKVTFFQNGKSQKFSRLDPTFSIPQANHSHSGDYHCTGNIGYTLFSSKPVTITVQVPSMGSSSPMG

For test [5], the target named is T5, cynomolgus monkey FcγRIIa3 extracellular domain, C-terminal His-tag (cynomolgus monkey).
T5 construct: also called cyno FcγRIIa3; cynoFcgRIIa3; not shown: His-tag added to C-terminus
T5 chain: T3 chain with K127I, N130K, H133P, Q142R

The target of test [6] is T6, human FcγRIIIaV extracellular domain, C-terminal His-tag (human, UniProt P08637 17-208).
T6 construct: also called FcgRIIIaV; not shown: His-tag added to C-terminus
T6 sequence (P08637 17-208 F176V): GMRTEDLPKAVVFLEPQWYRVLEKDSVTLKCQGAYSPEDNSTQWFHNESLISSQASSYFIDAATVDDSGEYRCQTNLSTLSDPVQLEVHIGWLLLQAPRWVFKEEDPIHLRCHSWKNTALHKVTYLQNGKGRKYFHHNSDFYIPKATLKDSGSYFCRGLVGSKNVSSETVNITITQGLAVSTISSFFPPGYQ

The target in test [7] is T7, cynomolgus monkey FcγRIIa1 extracellular domain, C-terminal His-tag (cynomolgus monkey).
T7 construct: also called cyno FcγRIIa1; cynoFcgRIIa1; not shown: His-tag added to C-terminus
T7 chain: T3 chain with T95P, A121T, K127I, S128A, N130K, N135D, Q142R

The target of test [8] is T8, cynomolgus monkey FcγRIIIaS extracellular domain, C-terminal His-tag (cynomolgus monkey, UniProt A3RFZ7 21-206 (rhesus entry)).
T8 construct: also called cyno FcγRIIIaS; cynoFcγRIIIaS; not shown: His-tag added to C-terminus
T8 sequence (A3RFZ7 21-206): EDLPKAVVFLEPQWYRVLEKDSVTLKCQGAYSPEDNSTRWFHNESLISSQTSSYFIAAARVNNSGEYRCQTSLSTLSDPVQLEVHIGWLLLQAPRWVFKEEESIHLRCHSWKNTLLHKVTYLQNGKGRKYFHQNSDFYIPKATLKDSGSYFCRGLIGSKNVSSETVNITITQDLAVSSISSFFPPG

B1: M103205H795-MY273/M103202L889-SK1 (antibody, human IgG1, kappa)
heavy: QVTLKESGPVLVKPTETLTLTCTVSGIDLSHDDISWVRQAPGKGLEWVGIISYAGSTYYASWAKGRLTISKDTSKNQVVLTMTNMDPVDTATYYCARGVPAYSHGGDLWGQGTLVTVSSASTKGPSVFPLAPSSKSTSGGTAALGCLVKDYFPEPVTVSWNSGALTSGVHTFPAVLQSSGLYSLSSVVTVPSSSLGTQTYICNVNHKPSNTKVDKKVEPKSCDKTHTCPPCPAPELLLGPSVFLFPPKPKDTLMISRTPEVTCVVVDVSDEDPEVKFNWYVDGVEVHNAKTKPREEQYNSTYRVVSVLTVLHQDWLNGKEYKCKVSNKALPKPIEKTISKAKGQPREPQVYTLPPSREEMTKNQVSLTCLVKGFYPSDIAVEWESNGQPENNYKTTPKVLDSDGSFFLYSKLTVDKSRWQQGNVFSCSVMHEALHNHYTQKSLSLSP
light: DIVMTQSPATLSLSPGERATLSCTSSQSVYHANWLSWFQQKPGQPPKLLIYWASTLAYGVPSRFSGSGSGTDFTLTISSLQPEDAATYYCAGGYGGGRYAFGQGTKVEIKRTVAAPSVFIFPPSDEQLKSGTASVVCLLNNFYPREAKVQWKVDNALQSGNSQESVTEQDSKDSTYSLSSTLTLSKADYEKHKVYACEVTHQGLSSPVTKSFNRGEC
Consider B1, for which the Kd (commonly a measure of binding affinity in units of concentration) in test [1] turned out to be 1200 nM; in test [2] it was 3000 nM; in test [3], 3500 nM; in test [4], 1000 nM; in test [5], 11000 nM; in test [6], 9700 nM. The Kd turned out to be 3700 nM in test [7] and 1700 nM in test [8].

B2: M103205H795-MY276/M103202L889-SK1 (antibody, human IgG1, kappa)
heavy: B1 heavy with L238I
light: B1 light
B2: the Kd worked out at 310 nM in test [1]; 2400 nM in test [2]; 1300 nM in test [3]; 250 nM in test [4]; 4300 nM in test [5]; 5700 nM in test [6]. Besides, the figures for the Kd in test [7] and in test [8] were 1100 nM and 1200 nM, respectively.

B3: M103205H795-MY279/M103202L889-SK1 (antibody, human IgG1, kappa)
heavy: B1 heavy with L238H, Q297L, K398P
light: B1 light
As to B3, the Kd is 910 nM in test [1]; 4600 nM in test [2]; 3300 nM in test [3]; 720 nM in test [4]; 4700 nM in test [5]; 7000 nM in test [6]. Also, the Kd came out at 2800 nM in test [7] and 2400 nM in test [8].

B4: M103205H795-MY280/M103202L889-SK1 (antibody, human IgG1, kappa)
heavy: B1 heavy with L238V, Q297L, K398P
light: B1 light
With B4, the Kd in test [1] is 330 nM; in test [2] it was 2900 nM; in test [3] it was 1200 nM; in test [4], 450 nM; in test [5], 4600 nM; in test [6], 4400 nM. In addition, the Kd worked out at 1000 nM in test [7] and 1800 nM in test [8].

B5: M103205H795-MY310/M103202L889-SK1 (antibody, human IgG1, kappa)
heavy: B1 heavy with L238T, D270E, K328T, K398P
light: B1 light
With B5, the Kd in test [1] came to 950 nM; in test [2], 2900 nM; in test [3], 2900 nM; in test [4], 550 nM; in test [5] it was 7200 nM; in test [6] it was 6900 nM. The Kd in test [7] stood at 3000 nM; in test [8], 1800 nM.

B6: M103205H795-MY281/M103202L889-SK1 (antibody, human IgG1, kappa)
heavy: B1 heavy with L238Q, Q297L, K398P
light: B1 light
For B6, the Kd in test [1] was found to be 620 nM; in test [2], 1800 nM; in test [3] it was 2500 nM; in test [4], 390 nM; in test [5], 9100 nM; in test [6], 2100 nM. For the same molecule, the values for the Kd in test [7] and in test [8] were 1900 nM and 740 nM, respectively.

B7: M103205H795-MY309/M103202L889-SK1 (antibody, human IgG1, kappa)
heavy: B1 heavy with L238T, D270E, K398M
light: B1 light
With B7, the Kd turned out to be 710 nM in test [1]; 1600 nM in test [2]; 2500 nM in test [3]; 260 nM in test [4]; 7000 nM in test [5]; 4300 nM in test [6]. The Kd came to 3500 nM in test [7] and 1200 nM in test [8].

B8: M103205H795-MY278/M103202L889-SK1 (antibody, human IgG1, kappa)
heavy: B1 heavy with L238M, Q297L, K398P
light: B1 light
In the case of B8, the Kd in test [1] is 1300 nM; in test [2], 4400 nM; in test [3], 3600 nM; in test [4] it was 1300 nM; in test [5], 10000 nM; in test [6] it was 3400 nM. Further, the Kd was 3000 nM in test [7] and 740 nM in test [8].

B9: M103205H795-MY311/M103202L889-SK1 (antibody, human IgG1, kappa)
heavy: B1 heavy with L238T, D270E, Q297L, K398P
light: B1 light
As for B9, the Kd in test [1] is 780 nM; in test [2] it was 2100 nM; in test [3] it was 3400 nM; in test [4], 450 nM; in test [5], 8600 nM; in test [6], 7100 nM. The Kd in test [7] was 2300 nM; in test [8] it was 2400 nM.

B10: M103205H795-MY293/M103202L889-SK1 (antibody, human IgG1, kappa)
heavy: B1 heavy with L238G, G239Y, D270E, Q297L
light: B1 light
Regarding B10, the Kd was 860 nM in test [1]; 150 nM in test [2]; 3300 nM in test [3]; 73 nM in test [4]; 3900 nM in test [5]; 39000 nM in test [6]. In addition, the results for the Kd in test [7] and in test [8] were 2300 nM and 4200 nM, respectively.

B11: M103205H795-MY308/M103202L889-SK1 (antibody, human IgG1, kappa)
heavy: B1 heavy with L238T, D270E, K398P
light: B1 light
For the molecule B11, the Kd worked out at 1300 nM in test [1]; 4100 nM in test [2]; 4600 nM in test [3]; 360 nM in test [4]; 1100 nM in test [5]; 8300 nM in test [6]. Also, the Kd in test [7] was 3900 nM; in test [8], 2900 nM.

B12: M103205H795-MY274/M103202L889-SK1 (antibody, human IgG1, kappa)
heavy: B1 heavy with L238T
light: B1 light
Take B12: the equilibrium dissociation constant (Kd) came out at 230 nM in test [1]; 950 nM in test [2]; 800 nM in test [3]; 170 nM in test [4]; 2000 nM in test [5]; 2500 nM in test [6]. The Kd in test [7] was found to be 830 nM; in test [8] it was 670 nM.

B13: M103205H795-MY292/M103202L889-SK1 (antibody, human IgG1, kappa)
heavy: B1 heavy with L238G, G239Y, Q297L, K398M
light: B1 light
On to B13, for which the Kd in test [1] amounted to 430 nM; in test [2], 140 nM; in test [3], 2500 nM; in test [4], 76 nM; in test [5] it was 2200 nM; in test [6], 28000 nM. In addition, the values for the Kd in test [7] and in test [8] were 1500 nM and 4000 nM, respectively.
